Assay [1] addresses T1, huEGFR (human, UniProt P00533 25-645, limits assumed, phycoerythrin conjugate (LYNX rapid RPE kit)).
T1 construct: also called EGFR-PE; EGFR-phycoerythrin

Assay [2] concerns the target T1, huEGFR. The source holds these as a separate data set.

Like-named read-outs stand apart in the source and are kept apart here.

B1: matuzumab (antibody, V domains shown)
VH: QVQLVQSGAEVKKPGASVKVSCKASGYTFTSHWMHWVRQAPGQGLEWIGEFNPSNGRTNYNEKFKSKATMTVDTSTNTAYMELSSLRSEDTAVYYCASRDYDYDGRYFDYWGQGTLVTVSS
VL: DIQMTQSPSSLSASVGDRVTITCSASSSVTYMYWYQQKPGKAPKLLIYDTSNLASGVPSRFSGSGSGTDYTFTISSLQPEDIATYYCQQWSSHIFTFGQGTKVEIKG
As to B1, the Kd (as a rule, the constant that tells how readily two partners part at equilibrium) with huEGFR [1] was determined as 0.34 nM; with huEGFR [2], 113 nM.

The record behind these values is patent US20180298374A1 (Merck KGaA, published 2018).
